Patent publication US20210032299A1 (Eli Lilly, published 2021)
Starred links: 1 amine or outer side, 2 acyl side, 3 side chain; linkers in the order of their positions; H or OH if unused. Non-standard residues stand in square brackets, D forms with d. Groups on a side chain read outwards from the residue. No end group written: not given here. *: point of attachment. C20 diacid = O=C(O)CCCCCCCCCCCCCCCCCCC(=O)*; γGlu = O=C(O)[C@H](CCC(=O)[*:2])N[*:1]; 4Pal = N[C@@H](Cc1ccncc1)C(=O)O; αMeL = CC(C)C[C@](C)(N)C(=O)O; Orn = NCCC[C@H](N)C(=O)O; AEEA = NCCOCCOCC(=O)O; Aib = CC(C)(N)C(=O)O

B1: Example 80 (peptide)
peptide: Y[Aib]EGTFISDYSI[αMeL]LD[Orn]K([AEEA-AEEA-γGlu-C20 diacid])HQ[Aib]DFVE[4Pal]LLETGPSSGAPPPS-NH2
modifications: N-terminus assumed
SMILES: CC[C@H](C)[C@H](NC(=O)[C@H](Cc1ccccc1)NC(=O)[C@@H](NC(=O)CNC(=O)[C@H](CCC(=O)O)NC(=O)C(C)(C)NC(=O)[C@@H](N)Cc1ccc(O)cc1)[C@@H](C)O)C(=O)N[C@@H](CO)C(=O)N[C@@H](CC(=O)O)C(=O)N[C@@H](Cc1ccc(O)cc1)C(=O)N[C@@H](CO)C(=O)N[C@H](C(=O)N[C@@](C)(CC(C)C)C(=O)N[C@@H](CC(C)C)C(=O)N[C@@H](CC(=O)O)C(=O)N[C@@H](CCCN)C(=O)N[C@@H](CCCCNC(=O)COCCOCCNC(=O)COCCOCCNC(=O)CC[C@H](NC(=O)CCCCCCCCCCCCCCCCCCC(=O)O)C(=O)O)C(=O)N[C@@H](Cc1c[nH]cn1)C(=O)N[C@@H](CCC(N)=O)C(=O)NC(C)(C)C(=O)N[C@@H](CC(=O)O)C(=O)N[C@@H](Cc1ccccc1)C(=O)N[C@H](C(=O)N[C@@H](CCC(=O)O)C(=O)N[C@@H](Cc1ccncc1)C(=O)N[C@@H](CC(C)C)C(=O)N[C@@H](CC(C)C)C(=O)N[C@@H](CCC(=O)O)C(=O)N[C@H](C(=O)NCC(=O)N1CCC[C@H]1C(=O)N[C@@H](CO)C(=O)N[C@@H](CO)C(=O)NCC(=O)N[C@@H](C)C(=O)N1CCC[C@H]1C(=O)N1CCC[C@H]1C(=O)N1CCC[C@H]1C(=O)N[C@@H](CO)C(N)=O)[C@@H](C)O)C(C)C)[C@@H](C)CC
B2: Example 77 (peptide)
peptide: YXEGTXISDYSIXLDXKHQXDFVEXLLETGPSSGAPPPS
modifications: Aib2; Iva6; αMeL13; Orn16; K17((2-[2-(2-Amino-ethoxy)-ethoxy]-acetyl)2-(γ-Glu)-CO-(CH2)18-CO2H); Aib20; 4-Pal25; C-terminal amide
B3: Example 9 (peptide)
peptide: YXEGTFISDYSILLDKKHQXDFVNWLLAQGPSSGAPPPS
modifications: D-Ala2; K17((2-[2-(2-Amino-ethoxy)-ethoxy]-acetyl)2-(γ-Glu)-CO-(CH2)18-CO2H); Aib20; C-terminal amide
B4: Example 92 (peptide)
peptide: Y[Aib]EGTFISDYSI[αMeL]LDKIHQ[Aib]DFVEYK([AEEA-AEEA-γGlu-C20 diacid])LEQGPSSGAPPPS-NH2
modifications: N-terminus assumed
SMILES: CC[C@H](C)[C@H](NC(=O)[C@H](CCCCN)NC(=O)[C@H](CC(=O)O)NC(=O)[C@H](CC(C)C)NC(=O)[C@](C)(CC(C)C)NC(=O)[C@@H](NC(=O)[C@H](CO)NC(=O)[C@H](Cc1ccc(O)cc1)NC(=O)[C@H](CC(=O)O)NC(=O)[C@H](CO)NC(=O)[C@@H](NC(=O)[C@H](Cc1ccccc1)NC(=O)[C@@H](NC(=O)CNC(=O)[C@H](CCC(=O)O)NC(=O)C(C)(C)NC(=O)[C@@H](N)Cc1ccc(O)cc1)[C@@H](C)O)[C@@H](C)CC)[C@@H](C)CC)C(=O)N[C@@H](Cc1c[nH]cn1)C(=O)N[C@@H](CCC(N)=O)C(=O)NC(C)(C)C(=O)N[C@@H](CC(=O)O)C(=O)N[C@@H](Cc1ccccc1)C(=O)N[C@H](C(=O)N[C@@H](CCC(=O)O)C(=O)N[C@@H](Cc1ccc(O)cc1)C(=O)N[C@@H](CCCCNC(=O)COCCOCCNC(=O)COCCOCCNC(=O)CC[C@H](NC(=O)CCCCCCCCCCCCCCCCCCC(=O)O)C(=O)O)C(=O)N[C@@H](CC(C)C)C(=O)N[C@@H](CCC(=O)O)C(=O)N[C@@H](CCC(N)=O)C(=O)NCC(=O)N1CCC[C@H]1C(=O)N[C@@H](CO)C(=O)N[C@@H](CO)C(=O)NCC(=O)N[C@@H](C)C(=O)N1CCC[C@H]1C(=O)N1CCC[C@H]1C(=O)N1CCC[C@H]1C(=O)N[C@@H](CO)C(N)=O)C(C)C

Experiments:
[1] = target: T1, human glucose-dependent insulinotropic polypeptide (GIP) receptor (human, UniProt P48546 22-466); assay: SPA, displacement of [125I]-GIP from hGIPR membranes, 0.1% bacitracin
T1 construct: whole, on cells; Assayed as crude membranes of stably transfected CHO cells; also called hGIPR; human GIP receptor
T1 sequence (looked up): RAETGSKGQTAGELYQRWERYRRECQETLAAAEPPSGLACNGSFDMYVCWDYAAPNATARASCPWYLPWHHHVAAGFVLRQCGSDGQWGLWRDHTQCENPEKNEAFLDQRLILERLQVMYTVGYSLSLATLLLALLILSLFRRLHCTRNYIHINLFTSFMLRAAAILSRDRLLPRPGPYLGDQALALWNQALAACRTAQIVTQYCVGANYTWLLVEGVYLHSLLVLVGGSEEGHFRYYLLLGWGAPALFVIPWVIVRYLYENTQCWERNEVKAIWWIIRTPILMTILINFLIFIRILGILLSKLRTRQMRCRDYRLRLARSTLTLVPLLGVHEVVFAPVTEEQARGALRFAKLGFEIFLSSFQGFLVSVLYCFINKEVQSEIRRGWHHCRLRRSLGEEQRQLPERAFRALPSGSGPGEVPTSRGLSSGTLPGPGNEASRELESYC
Experimental: The binding buffer contains 25 mM HEPES, pH 7.4, 2.5 mM CaCl₂, 1 mM MgCl₂, 0.1% (w/v) bacitracin, 0.003% (w/v) TWEEN®-20, and Roche Complete™ Protease Inhibitors without EDTA. […] Plates are sealed and mixed on a plate shaker (setting 6) for 1 minute and read with a PerkinElmer Trilux MicroBeta® scintillation counter after 2.5 to 12 hours of incubation/settling time at room temperature.
(§1) Data are analyzed using four-parameter (curve maximum, curve minimum, […], Hill slope) nonlinear regression routines (Genedata Screener, version 12.0.4, Genedata AG, Basal, Switzerland). […] Values for Kᵢ are reported as the geometric mean, with error expressed as the standard error of the mean (SEM) and n is equal to the number of independent replicates (determined in assays performed on different days). Geometric Means are calculated as follows: […]

human GLP-1 receptor = target: T2, human GLP-1 receptor (human, UniProt P43220 24-463); assay: SPA, displacement of [125I]-GLP-1 from hGLP-1R membranes, 0.1% bacitracin
T2 construct: whole, on cells; Assayed as crude membranes of stably transfected HEK293 cells; also called hGLP1R; hGLP-1R
Experimental: The binding buffer contains 25 mM HEPES, pH 7.4, 2.5 mM CaCl₂, 1 mM MgCl₂, 0.1% (w/v) bacitracin, 0.003% (w/v) TWEEN®-20, and Roche Complete™ Protease Inhibitors without EDTA.
as §1

| Binder | Ki [1] | Ki (human GLP-1 receptor) |
| --- | --- | --- |
| B1 | 82.8 pM |  |
| B2 | 84.1 pM |  |
| B3 | 110 pM | 168000 pM |
| B4 | 33.1 pM |  |
